Patent US20200131230A1 (published 2020)
Like-named read-outs stand apart in the source and are kept apart here. Positions of bridges follow the written chain, without caps; N, C: chain ends. Non-standard residues stand in square brackets, D forms with d. 2Nal = N[C@@H](Cc1ccc2ccccc2c1)C(=O)O; Nle = CCCC[C@H](N)C(=O)O; 4CF = not defined here

B1: Compound 17 (peptide)
peptide: {CH2CO}-FITGKNWVKWVC-NH2
modifications: thioether N-12
SMILES: CC[C@H](C)[C@@H]1NC(=O)[C@H](Cc2ccccc2)NC(=O)CSC[C@@H](C(N)=O)NC(=O)[C@H](C(C)C)NC(=O)[C@H](Cc2c[nH]c3ccccc23)NC(=O)[C@H](CCCCN)NC(=O)[C@H](C(C)C)NC(=O)[C@H](Cc2c[nH]c3ccccc23)NC(=O)[C@H](CC(N)=O)NC(=O)[C@H](CCCCN)NC(=O)CNC(=O)[C@H]([C@@H](C)O)NC1=O
B2: Compound 19 (peptide)
peptide: {CH2CO}-FISGKNWMKWVC-NH2
modifications: thioether N-12
SMILES: CC[C@H](C)[C@@H]1NC(=O)[C@H](Cc2ccccc2)NC(=O)CSC[C@@H](C(N)=O)NC(=O)[C@H](C(C)C)NC(=O)[C@H](Cc2c[nH]c3ccccc23)NC(=O)[C@H](CCCCN)NC(=O)[C@H](CCSC)NC(=O)[C@H](Cc2c[nH]c3ccccc23)NC(=O)[C@H](CC(N)=O)NC(=O)[C@H](CCCCN)NC(=O)CNC(=O)[C@H](CO)NC1=O
B3: Compound 27 (peptide)
peptide: {CH2CO}-[2Nal]FSGRNWVKWVC-NH2
modifications: thioether N-12
SMILES: CC(C)[C@@H]1NC(=O)[C@H](Cc2c[nH]c3ccccc23)NC(=O)[C@H](CCCCN)NC(=O)[C@H](C(C)C)NC(=O)[C@H](Cc2c[nH]c3ccccc23)NC(=O)[C@H](CC(N)=O)NC(=O)[C@H](CCCNC(=N)N)NC(=O)CNC(=O)[C@H](CO)NC(=O)[C@H](Cc2ccccc2)NC(=O)[C@H](Cc2ccc3ccccc3c2)NC(=O)CSC[C@@H](C(N)=O)NC1=O
B4: Compound 8 (peptide)
peptide: {CH2CO}-FRSGRNWVRWVC-NH2
modifications: thioether N-12
SMILES: CC(C)[C@@H]1NC(=O)[C@H](Cc2c[nH]c3ccccc23)NC(=O)[C@H](CCCNC(=N)N)NC(=O)[C@H](C(C)C)NC(=O)[C@H](Cc2c[nH]c3ccccc23)NC(=O)[C@H](CC(N)=O)NC(=O)[C@H](CCCNC(=N)N)NC(=O)CNC(=O)[C@H](CO)NC(=O)[C@H](CCCNC(=N)N)NC(=O)[C@H](Cc2ccccc2)NC(=O)CSC[C@@H](C(N)=O)NC1=O
B5: Compound 26 (peptide)
peptide: {CH2CO}-FISGRNW[Nle]KWVC-NH2
modifications: thioether N-12
SMILES: CCCC[C@@H]1NC(=O)[C@H](Cc2c[nH]c3ccccc23)NC(=O)[C@H](CC(N)=O)NC(=O)[C@H](CCCNC(=N)N)NC(=O)CNC(=O)[C@H](CO)NC(=O)[C@H]([C@@H](C)CC)NC(=O)[C@H](Cc2ccccc2)NC(=O)CSC[C@@H](C(N)=O)NC(=O)[C@H](C(C)C)NC(=O)[C@H](Cc2c[nH]c3ccccc23)NC(=O)[C@H](CCCCN)NC1=O
B6: Compound 18 (peptide)
peptide: {CH2CO}-FISGKTWVKWVC-NH2
modifications: thioether N-12
SMILES: CC[C@H](C)[C@@H]1NC(=O)[C@H](Cc2ccccc2)NC(=O)CSC[C@@H](C(N)=O)NC(=O)[C@H](C(C)C)NC(=O)[C@H](Cc2c[nH]c3ccccc23)NC(=O)[C@H](CCCCN)NC(=O)[C@H](C(C)C)NC(=O)[C@H](Cc2c[nH]c3ccccc23)NC(=O)[C@H]([C@@H](C)O)NC(=O)[C@H](CCCCN)NC(=O)CNC(=O)[C@H](CO)NC1=O
B7: Compound 23 (peptide)
peptide: {CH2CO}-WISGRTWVKWVC-NH2
modifications: thioether N-12
SMILES: CC[C@H](C)[C@@H]1NC(=O)[C@H](Cc2c[nH]c3ccccc23)NC(=O)CSC[C@@H](C(N)=O)NC(=O)[C@H](C(C)C)NC(=O)[C@H](Cc2c[nH]c3ccccc23)NC(=O)[C@H](CCCCN)NC(=O)[C@H](C(C)C)NC(=O)[C@H](Cc2c[nH]c3ccccc23)NC(=O)[C@H]([C@@H](C)O)NC(=O)[C@H](CCCNC(=N)N)NC(=O)CNC(=O)[C@H](CO)NC1=O
B8: Compound 22 (peptide)
peptide: {CH2CO}-WISGKTWVRWVC-NH2
modifications: thioether N-12
SMILES: CC[C@H](C)[C@@H]1NC(=O)[C@H](Cc2c[nH]c3ccccc23)NC(=O)CSC[C@@H](C(N)=O)NC(=O)[C@H](C(C)C)NC(=O)[C@H](Cc2c[nH]c3ccccc23)NC(=O)[C@H](CCCNC(=N)N)NC(=O)[C@H](C(C)C)NC(=O)[C@H](Cc2c[nH]c3ccccc23)NC(=O)[C@H]([C@@H](C)O)NC(=O)[C@H](CCCCN)NC(=O)CNC(=O)[C@H](CO)NC1=O
B9: Compound 16 (peptide)
peptide: {CH2CO}-WISGKNWVKWVC-NH2
modifications: thioether N-12
SMILES: CC[C@H](C)[C@@H]1NC(=O)[C@H](Cc2c[nH]c3ccccc23)NC(=O)CSC[C@@H](C(N)=O)NC(=O)[C@H](C(C)C)NC(=O)[C@H](Cc2c[nH]c3ccccc23)NC(=O)[C@H](CCCCN)NC(=O)[C@H](C(C)C)NC(=O)[C@H](Cc2c[nH]c3ccccc23)NC(=O)[C@H](CC(N)=O)NC(=O)[C@H](CCCCN)NC(=O)CNC(=O)[C@H](CO)NC1=O
B10: Compound 29 (peptide)
peptide: {CH2CO}-[2Nal]ISGRNWVK[2Nal]VC-NH2
modifications: thioether N-12
SMILES: CC[C@H](C)[C@@H]1NC(=O)[C@H](Cc2ccc3ccccc3c2)NC(=O)CSC[C@@H](C(N)=O)NC(=O)[C@H](C(C)C)NC(=O)[C@H](Cc2ccc3ccccc3c2)NC(=O)[C@H](CCCCN)NC(=O)[C@H](C(C)C)NC(=O)[C@H](Cc2c[nH]c3ccccc23)NC(=O)[C@H](CC(N)=O)NC(=O)[C@H](CCCNC(=N)N)NC(=O)CNC(=O)[C@H](CO)NC1=O
B11: Compound 21 (peptide)
peptide: {CH2CO}-FISGKNWMRWVC-NH2
modifications: thioether N-12
SMILES: CC[C@H](C)[C@@H]1NC(=O)[C@H](Cc2ccccc2)NC(=O)CSC[C@@H](C(N)=O)NC(=O)[C@H](C(C)C)NC(=O)[C@H](Cc2c[nH]c3ccccc23)NC(=O)[C@H](CCCNC(=N)N)NC(=O)[C@H](CCSC)NC(=O)[C@H](Cc2c[nH]c3ccccc23)NC(=O)[C@H](CC(N)=O)NC(=O)[C@H](CCCCN)NC(=O)CNC(=O)[C@H](CO)NC1=O
B12: Compound 20 (peptide)
peptide: {CH2CO}-WISGKTWVKWVC-NH2
modifications: thioether N-12
SMILES: CC[C@H](C)[C@@H]1NC(=O)[C@H](Cc2c[nH]c3ccccc23)NC(=O)CSC[C@@H](C(N)=O)NC(=O)[C@H](C(C)C)NC(=O)[C@H](Cc2c[nH]c3ccccc23)NC(=O)[C@H](CCCCN)NC(=O)[C@H](C(C)C)NC(=O)[C@H](Cc2c[nH]c3ccccc23)NC(=O)[C@H]([C@@H](C)O)NC(=O)[C@H](CCCCN)NC(=O)CNC(=O)[C@H](CO)NC1=O

What was measured:
[1] = biological target: T1, Thrombospondin human platelet (Calbiochem, 605225) (human, UniProt P07996 19-1170); assay: cell-based or functional assay
[2] = biological target: T1, Thrombospondin human platelet …; assay: cell-based or functional assay; remark: listed apart in the source

T1 sequence (P07996 19-1170 limits assumed): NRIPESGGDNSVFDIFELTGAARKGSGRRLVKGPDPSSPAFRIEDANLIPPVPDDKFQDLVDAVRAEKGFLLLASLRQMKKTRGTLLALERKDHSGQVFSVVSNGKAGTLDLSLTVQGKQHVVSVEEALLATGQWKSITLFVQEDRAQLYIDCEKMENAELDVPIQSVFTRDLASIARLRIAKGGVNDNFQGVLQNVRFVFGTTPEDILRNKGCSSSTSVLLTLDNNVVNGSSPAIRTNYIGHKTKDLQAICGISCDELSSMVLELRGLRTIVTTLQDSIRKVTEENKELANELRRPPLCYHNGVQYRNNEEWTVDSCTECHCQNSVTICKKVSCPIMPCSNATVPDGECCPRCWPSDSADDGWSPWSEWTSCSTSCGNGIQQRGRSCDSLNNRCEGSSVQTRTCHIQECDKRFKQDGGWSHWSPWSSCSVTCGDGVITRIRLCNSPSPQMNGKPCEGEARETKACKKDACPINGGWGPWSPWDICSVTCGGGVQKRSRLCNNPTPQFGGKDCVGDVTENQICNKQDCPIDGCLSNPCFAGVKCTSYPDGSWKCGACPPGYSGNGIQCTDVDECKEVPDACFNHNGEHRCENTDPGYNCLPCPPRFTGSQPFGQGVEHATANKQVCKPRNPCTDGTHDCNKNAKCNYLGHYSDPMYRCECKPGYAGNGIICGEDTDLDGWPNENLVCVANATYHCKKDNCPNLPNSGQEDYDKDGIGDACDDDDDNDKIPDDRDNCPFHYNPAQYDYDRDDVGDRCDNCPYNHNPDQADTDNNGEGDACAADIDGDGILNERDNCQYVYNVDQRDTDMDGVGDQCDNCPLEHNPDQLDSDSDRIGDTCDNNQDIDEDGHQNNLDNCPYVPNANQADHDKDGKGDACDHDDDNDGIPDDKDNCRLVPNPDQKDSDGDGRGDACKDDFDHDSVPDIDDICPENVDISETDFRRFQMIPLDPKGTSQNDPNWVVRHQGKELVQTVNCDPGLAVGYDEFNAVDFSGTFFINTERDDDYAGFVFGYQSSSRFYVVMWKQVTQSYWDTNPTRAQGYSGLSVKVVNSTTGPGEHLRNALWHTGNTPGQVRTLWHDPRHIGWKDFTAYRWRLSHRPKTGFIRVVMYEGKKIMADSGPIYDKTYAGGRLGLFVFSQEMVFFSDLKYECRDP

Binder	Cell adhesion IC50 [1] [nM]	Cell adhesion IC50 [2] [nM]
B1	17.7	–
{CH2CO}-[4CF]ISGRNWVKWVC-NH2 (thioether N-12; reading uncertain) [Compound 25]	7.9	–
{CH2CO}-[2Nal][4CF]SGRNWVKWVC-NH2 (thioether N-12; reading uncertain) [Compound 31]	–	32.5
B2	14.1	–
B3	–	32.8
B4	33.4	–
B5	–	7
B6	13	–
B7	15.6	–
B8	20.3	–
B9	21	–
B10	–	17.6
B11	21.3	–
B12	13.1	–
